One protein from patent US20210062216 can be followed below.

This data set has as its target T1, Myc:SlRin4-3 (pGWB518, N-terminal Myc tag).
T1 chain: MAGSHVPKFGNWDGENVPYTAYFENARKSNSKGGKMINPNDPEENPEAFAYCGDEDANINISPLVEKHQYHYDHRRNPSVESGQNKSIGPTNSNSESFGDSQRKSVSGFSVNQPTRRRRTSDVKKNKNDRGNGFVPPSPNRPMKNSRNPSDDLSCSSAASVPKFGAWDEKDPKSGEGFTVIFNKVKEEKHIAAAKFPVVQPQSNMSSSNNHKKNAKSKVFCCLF

B1: AvrRpt2:Myc (avrRpt2 of Pseudomonas syringae pv. tomato NY15125 in pGWB417, C-terminal Myc tag) (protein)
chain: MKIAPVAINHSPLSREVPSHAAPTQAKQTNLQSEAGDLDARKSSASSPETRALLATKTVLGRHKIEVPAFGGWFKKKSSKHETGGSSANADSSSVASDSTEKPLFRLTHVPYVSQGNERMGCWYACARMVGHSVEAGPRLGLPELYEGREGPAGLQDFSDVERFIHNEGLTRVDLPDNERFTHEELGALLYKHGPIIFGWKTPNDSWHMSVLTGVDKETSSITFHDPRQGPDLAMPLDYFNQRLAWQVPHAMLYR
As to B1, the “abundance of Rin4 protein, c-Myc immunoblot of N. benthamiana leaves 28 hr after agroinfiltration” value is reported as “a decrease in the abundance of Rin4 protein”.
